Among the data in the RNAGym collection of RNA variant scans (doi:10.7554/elife.80360) are self-cleavage values, retold here.

The chains are these.
B1: Hairpin Ribozyme (parent)
chain: GUCCUCUUUCACGUGCGCGUGAAAGAGAGAAGUGAACCAGAGAAACACACGUUGUGGUAUAUUACCUGGUA

In this data set the parent is B1. As to the kind of experiment: self-cleavage, relative activity (ratio to wild type); higher = more cleavage; co-transcriptional.
Consider GUCCUCUUUCACGUGCGCGUGAAAGAGAGAAGUGAACCAGAGAUACACACGUUGUGGUAUAGUACCUGGUA [A44U U62G], for which the self-cleavage was determined as 0.0672. Regarding GUCCUCUUUCACGUGCGCGUGAAAGAGAGAAGUGAACCAGAGAACCACACGUUGUGGUAUAUUACCAGGUA [A45C U67A], the self-cleavage turned out to be 0.118. On to GUCCUCUUUCACGUGCGCGUGAAAGAGAGAAGUGAACCAGAGAACCACACGUUGAGGUAUAUUACCUGGUA [A45C U55A], for which the self-cleavage is 0.192. The result for GUCCUCUUUCACGUGCGCGUGAAAGAGAGAAGUGAACCAGAGAAGCACACGUUGUGGUUUAUUACCUGGUA [A45G A59U] reads 0.0542; that for GUCCUCUUUCACGUGCGCGUGAAAGAGAGAAGUGAACCAGAGAAGCACACGUUGUGGUGUAUUACCUGGUA [A45G A59G], 0.174. Consider GUCCUCUUUCACGUGCGCGUGAAAGAGAGAAGUGAACCAGAGAACCACACGUUGUGAUAUAUUACCUGGUA [A45C G57A], for which the self-cleavage was found to be 0.115. The figure for GUCCUCUUUCACGUGCGCGUGAAAGAGAGAAGUGAACCAGAGAACCACACGUUGUGGUAUAUUACCUGUUA [A45C G69U] is 0.215; for GUCCUCUUUCACGUGCGCGUGAAAGAGAGAAGUGAACCAGAGAACCACACGUUGUGGUAUAUUACCUGCUA [A45C G69C] it is 0.193; for GUCCUCUUUCACGUGCGCGUGAAAGAGAGAAGUGAACCAGAGAACCGCACGUUGUGGUAUAUUACCUGGUA [A45C A47G] it is 0.0534. The figure for GUCCUCUUUCACGUGCGCGUGAAAGAGAGAAGUGAACCAGAGAACCACACGUAGUGGUAUAUUACCUGGUA [A45C U53A] is 0.123. The result for GUCCUCUUUCACGUGCGCGUGAAAGAGAGAAGUGAACCAGAGAACCACACGUCGUGGUAUAUUACCUGGUA [A45C U53C] reads 0.0463; that for GUCCUCUUUCACGUGCGCGUGAAAGAGAGAAGUGAACCAGAGAACCACACGUUGUGGUAUAUGACCUGGUA [A45C U63G], 0.136. On to GUCCUCUUUCACGUGCGCGUGAAAGAGAGAAGUGAACCAGAGAACCACACGUUGUGGUAUAUCACCUGGUA [A45C U63C], for which the self-cleavage amounted to 0.0707. For the variant GUCCUCUUUCACGUGCGCGUGAAAGAGAGAAGUGAACCAGAGAUACACACGUUGUGGUAUAUUACCUGGAA [A44U U70A], the self-cleavage amounted to 0.0951. Regarding GUCCUCUUUCACGUGCGCGUGAAAGAGAGAAGUGAACCAGAGAUACACACGUUGUGGUAUAUUACCUGGCA [A44U U70C], the self-cleavage worked out at 0.0872. In the case of GUCCUCUUUCACGUGCGCGUGAAAGAGAGAAGUGAACCAGAGAACCACACAUUGUGGUAUAUUACCUGGUA [A45C G51A], the self-cleavage worked out at 0.0999. The figure for GUCCUCUUUCACGUGCGCGUGAAAGAGAGAAGUGAACCAGAGAACCACACGUUGUGGUAUAUUACCUGGGA [A45C U70G] is 0.133; for GUCCUCUUUCACGUGCGCGUGAAAGAGAGAAGUGAACCAGAGAACCACACGUUGUGGUAUAUUACCUUGUA [A45C G68U] it is 0.166; for GUCCUCUUUCACGUGCGCGUGAAAGAGAGAAGUGAACCAGAGAACCACACGUUGUGGUAUAUUACCUAGUA [A45C G68A] it is 0.229. With GUCCUCUUUCACGUGCGCGUGAAAGAGAGAAGUGAACCAGAGAACCACACGUUGUGGUAUAUUACUUGGUA [A45C C66U], the self-cleavage was determined as 0. The figure for GUCCUCUUUCACGUGCGCGUGAAAGAGAGAAGUGAACCAGAGAACCACACGUUGUGGUAUAUUACAUGGUA [A45C C66A] is 0.187; for GUCCUCUUUCACGUGCGCGUGAAAGAGAGAAGUGAACCAGAGAACCACACGUUGUGGUAUAUUACGUGGUA [A45C C66G] it is 0.319. The figure for GUCCUCUUUCACGUGCGCGUGAAAGAGAGAAGUGAACCAGAGAAGCACACGUUGUGGUAUAUUACCUGGUU [A45G A71U] is 0.0799; for GUCCUCUUUCACGUGCGCGUGAAAGAGAGAAGUGAACCAGAGAAGCACACGUUGUGGUAUAUUACCUGGUC [A45G A71C] it is 0.399.

Turning to GUCCUCUUUCACGUGCGCGUGAAAGAGAGAAGUGAACCAGAGAAGCACACGUUGUGGUAUAUUACCUGGUG [A45G A71G], the self-cleavage was determined as 0.269. The result for GUCCUCUUUCACGUGCGCGUGAAAGAGAGAAGUGAACCAGAGAACCACACGUUGUGGUAGAUUACCUGGUA [A45C U60G] reads 0.165. The figure for GUCCUCUUUCACGUGCGCGUGAAAGAGAGAAGUGAACCAGAGAACCACACGUUGUGGUAUAGUACCUGGUA [A45C U62G] is 0.0741; for GUCCUCUUUCACGUGCGCGUGAAAGAGAGAAGUGAACCAGAGAACCACACGUUGUGGUAUAAUACCUGGUA [A45C U62A] it is 0.332. The result for GUCCUCUUUCACGUGCGCGUGAAAGAGAGAAGUGAACCAGAGAACCACACGUUGUGGUAUAUUACCUGGUC [A45C A71C] reads 0.453; that for GUCCUCUUUCACGUGCGCGUGAAAGAGAGAAGUGAACCAGAGAACCACACGUUGUGGUAUAUUACCUGGUU [A45C A71U], 0.184; that for GUCCUCUUUCACGUGCGCGUGAAAGAGAGAAGUGAACCAGAGAACCACACGUUGUGGUUUAUUACCUGGUA [A45C A59U], 0.151.

On to GUCCUCUUUCACGUGCGCGUGAAAGAGAGAAGUGAACCAGAGAACCACACGUUGUGGUCUAUUACCUGGUA [A45C A59C], for which the self-cleavage was 0.358. The figure for GUCCUCUUUCACGUGCGCGUGAAAGAGAGAAGUGAACCAGAGAAGCCCACGUUGUGGUAUAUUACCUGGUA [A45G A47C] is 0.228.

For GUCCUCUUUCACGUGCGCGUGAAAGAGAGAAGUGAACCAGAGAAGCUCACGUUGUGGUAUAUUACCUGGUA [A45G A47U], the self-cleavage was determined as 0.113.

With GUCCUCUUUCACGUGCGCGUGAAAGAGAGAAGUGAACCAGAGAACCACACGUUGUGGUAUUUUACCUGGUA [A45C A61U], the self-cleavage worked out at 0.186. The figure for GUCCUCUUUCACGUGCGCGUGAAAGAGAGAAGUGAACCAGAGAACCACACGUUGUGGUAUCUUACCUGGUA [A45C A61C] is 0.239; for GUCCUCUUUCACGUGCGCGUGAAAGAGAGAAGUGAACCAGAGAACCACACGUUCUGGUAUAUUACCUGGUA [A45C G54C] it is 0.137. Regarding GUCCUCUUUCACGUGCGCGUGAAAGAGAGAAGUGAACCAGAGAACCACACGUUGUGGCAUAUUACCUGGUA [A45C U58C], the self-cleavage worked out at 0.0787.
